Data on six molecules can be found in paper PMC7333892, “Identification of a PGXPP degron motif in dishevelled and structural basis for its binding to the E3 ligase KLHL12” (Open Biology, 2020).

For one assay, the system named is DVL1. The experiment in a line: DVL1 stabilization by MLN4924 in HEK293T cells co-transfected with KLHL12. The format is cell-based. The conditions noted are these: western blot. Here is the method:
(§1) We further investigated whether the ‘PGGPP' motif regulates the KLHL12-dependent degradation of DVL1. WT and mutant DVL1 constructs were therefore transfected into HEK293T cells in the presence or absence of full-length KLHL12. […] By contrast, the levels of the DVL1 mutants were unchanged by KLHL12 co-expression.
(§2) Full-length Flag-KLHL12 and HA-DVL1 constructs were transfected into HEK293T cells at 60% confluency with polyethylenimine. 40 h after transfection, cells were treated with cycloheximide (CHX) for 1 h or MLN4924 for 4 h and then harvested and lysed. Protein levels were analysed by Western blotting (anti-Flag antibody, Sigma-Aldrich, F1804; RRID:AB_262044 and anti-HA antibody, Biolegend, 901501; RRID:AB_2565006).
Background: A western blot detects proteins with antibodies after separation by electrophoresis.

For a further assay, the target named is T1, KLHL12 Kelch domain (Homo sapiens, UniProt Q53G59).
T1 construct: Human KLHL12 Kelch domain (Uniprot Q53G59-1, residues 268–567); His6 (N); made in house; host or cells: E. coli BL21(DE3)-R3-pRARE, vector pNIC28-Bsa4 (Addgene_38908)
T1 sequence (Q53G59 268-567): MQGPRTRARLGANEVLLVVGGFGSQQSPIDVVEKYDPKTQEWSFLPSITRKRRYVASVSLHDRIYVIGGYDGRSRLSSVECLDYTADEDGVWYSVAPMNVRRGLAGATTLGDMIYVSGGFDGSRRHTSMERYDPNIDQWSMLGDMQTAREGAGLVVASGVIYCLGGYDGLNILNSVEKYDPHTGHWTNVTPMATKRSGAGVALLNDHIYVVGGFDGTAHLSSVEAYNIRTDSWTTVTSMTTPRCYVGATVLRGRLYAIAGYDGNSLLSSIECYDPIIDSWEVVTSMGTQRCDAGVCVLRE
The experiment in a line: Fluorescence polarization peptide binding to KLHL12. The conditions noted are these: N-terminal FITC-labelled peptide 40 nM, 50 mM HEPES pH 7.5, 300 mM NaCl, 0.5 mM TCEP, 0.01% Triton-X, mean, n = 3. Here is the method:
Human KLHL12 Kelch domain (Uniprot Q53G59-1, residues 268–567) and KLHL7 Kelch domain (Uniprot Q8IXQ5-1, residues 283–586) were expressed from the vector pNIC28-Bsa4 in BL21(DE3)-R3-pRARE cells and purified by nickel affinity and size exclusion chromatography as described previously. Both plasmids are deposited in addgene (RRID:Addgene_38908 and RRID:Addgene_39023, respectively).
Fluorescence polarization assays were performed in 384-well plates using a Synergy 2 microplate reader (BioTek) with excitation and emission wavelengths of 485 nm and 528 nm, respectively. Peptides were synthesized, N-terminally labelled with FITC and purified by Tufts University Core Services (Boston, MA). Binding assays were performed in 10 µl volume at a constant labelled peptide concentration of 40 nM and indicated Kelch domain protein concentrations in a buffer containing 50 mM HEPES, pH 7.5, 300 mM NaCl, 0.5 mM TCEP and 0.01% Triton-X. Binding data were corrected for background of the free labelled peptides (no protein). For KD determination, data were fitted to a hyperbolic function using Sigma Plot software (Systat Software, San Jose CA). KD values represent mean ± S.E. (n = 3).
(Polarisation of emitted light reports the rotation of a fluorescent probe.)

The subject of assay [1] is full-length Flag-tagged KLHL12. The assay can be described thus: Co-immunoprecipitation of HA-DVL1 variants with Flag-KLHL12 in HEK293T cells. The assay is classed as cell-based. The conditions noted are these: MLN4924 4 h, anti-Flag immunoprecipitation, western blot. As to the method:
To validate the identified ‘PGGPP' sequence as degron motif for DVL1 recruitment and degradation by the KLHL12, we tested the binding, ubiquitination and stability of DVL1 in HEK293T cells. Two variants of full-length HA-tagged DVL1 were prepared in which the 657-‘PPGGPP' motif was either mutated to ‘AAAAAA' or deleted. Immunoprecipitation of the complex using full-length Flag-tagged KLHL12 was performed in cells treated with the neddylation inhibitor MLN4924 to ensure the stability of all transfected DVL1 variants. […] To confirm that the interaction promoted DVL1 ubiquitination, we next transfected Flag-tagged KLHL12 and HA-DVL1 variants into cells pretreated with the proteasome inhibitor MG132. DVL1 was immunoprecipitated by anti-HA agarose and its ubiquitination status probed by immunoblotting for the presence of high molecular weight poly-ubiquitin conjugates. A marked reduction in the ubiquitination of the two DVL1 mutants was observed compared to wild-type consistent with the importance of the ‘PGGPP' motif for KLHL12 recruitment (figure 5b). […]
Full-length DVL1 variants (Uniprot O14640-1) and KLHL12 were subcloned into a pcDNA3 vector, with N-terminal HA tag and Flag tag, respectively. […] Results were analysed using western blotting (Anti-Flag antibody, Sigma-Aldrich, F1804; RRID:AB_262044; Anti-HA antibody, Biolegend, 901501; RRID:AB_2565006).

For the next assay, the system named is full-length KLHL12. The experiment in a line: Stability assay of DVL1 variants with or without KLHL12 in HEK293T cells. The assay is classed as cell-based. The conditions noted are these: KLHL12 co-expression versus DVL1 alone, cycloheximide 1 h, western blot, GAPDH loading control. Here is the method: as §1, §2
For a further assay, the system named is KLHL12. The conditions noted are these: parallel study, ref [36] Zhao et al.; cited from earlier work. From the text:
The omitted proline position is substituted by a glycine or alanine in pa ...

For assay [2], the target named is T2, Human KLHL12 Kelch domain (residues 268-567) (human, UniProt Q53G59-1 268-567).
T2 construct: KLHL12 Kelch domain, human, Uniprot Q53G59-1, residues 268-567; the structure traces residues 279-567; The His6 tag is kept in the SPOT arrays (detected with anti-His antibody); Expressed from the vector pNIC28-Bsa4; also called 6 x His-KLHL12 Kelch domain; His6-tagged KLHL12 Kelch domain
T2 sequence (looked up): T1 sequence (Q53G59 268-567)
The assay can be described thus: peptide or protein array; initial DVL1 SPOT array: 20-mer peptides on cellulose membrane, incubated with 0.4 µM His6-tagged Kelch domain protein in PBS for 1 h at 4°C, bound protein detected with HRP-conjugated anti-His antibody. The note with it: both partners purified.

Assay [3] has as its target T2, Human KLHL12 Kelch domain (residues …). The experiment in a line: fluorescence polarisation; 40 nM FITC-labelled peptide, Kelch domain protein titrated; 50 mM HEPES pH 7.5, 300 mM NaCl, 0.5 mM TCEP, 0.01% Triton-X; hyperbolic fit, n = 3. The conditions noted are these: both partners purified.

Usually Kd stands for the constant that tells how readily two partners part at equilibrium.

“Also recorded” adds a separate entry of the source. Where no end group is shown, it is not given here. The star is where a group is joined. FITC = O=C1OC2(c3ccc(O)cc3Oc3cc(O)ccc32)c2ccc(NC(=S)*)cc21

As to `NS(=O)(=O)OC[C@@H]1C[C@@H](n2ccc3c(N[C@H]4CCc5ccccc54)ncnc32)C[C@@H]1O` [MLN4924], the “stability of DVL1 WT on MLN4924” value in the assay with DVL1 (HEK293T cells co-transfected with DVL1 WT and KLHL12, MLN4924 4 h) was “stabilized DVL1 WT; also recorded: rescued the stability of DVL1 WT”. Further, in the assay on DVL1 (HEK293T cells co-transfected with DVL1 mutants and KLHL12, MLN4924 4 h), the “stability of DVL1 mutants on MLN4924” value is reported as “not DVL1 mutants”.
Take `CC(C)C[C@H](NC(=O)[C@H](CCC(=O)O)NC(=O)[C@H](CCCNC(=N)N)NC(=O)[C@@H](NC(=O)[C@@H]1CCCN1C(=O)[C@@H]1CCCN1C(=O)CNC(=O)CNC(=O)[C@@H]1CCCN1C(=O)[C@@H]1CCCN1C(=O)CNC(=O)CNC(=O)[C@@H](NC(=O)[C@@H](NC(=O)[C@@H](NC(=O)[C@H](Cc1ccc(O)cc1)NC(=O)[C@H](C)N)[C@@H](C)O)C(C)C)C(C)C)C(C)C)C(=O)N[C@@H](C)C(=O)N[C@@H](C)C(=O)N[C@H](C(=O)O)C(C)C` [Spot A13]: the Kd at KLHL12 Kelch domain was found to be 22.3 µM.

B1: DVL1 WT: full-length HA-tagged wild-type DVL1 expressed in cells (protein)
chain: MAETKIIYHMDEEETPYLVKLPVAPERVTLADFKNVLSNRPVHAYKFFFKSMDQDFGVVKEEIFDDNAKLPCFNGRVVSWLVLAEGAHSDAGSQGTDSHTDLPPPLERTGGIGDSRPPSFHPNVASSRDGMDNETGTESMVSHRRERARRRNREEAARTNGHPRGDRRRDVGLPPDSASTALSSELESSSFVDSDEDGSTSRLSSSTEQSTSSRLIRKHKRRRRKQRLRQADRASSFSSITDSTMSLNIVTVTLNMERHHFLGISIVGQSNDRGDGGIYIGSIMKGGAVAADGRIEPGDMLLQVNDVNFENMSNDDAVRVLREIVSQTGPISLTVAKCWDPTPRSYFTVPRADPVRPIDPAAWLSHTAALTGALPRYGTSPCSSAVTRTSSSSLTSSVPGAPQLEEAPLTVKSDMSAVVRVMQLPDSGLEIRDRMWLKITIANAVIGADVVDWLYTHVEGFKERREARKYASSLLKHGFLRHTVNKITFSEQCYYVFGDLCSNLATLNLNSGSSGTSDQDTLAPLPHPAAPWPLGQGYPYQYPGPPPCFPPAYQDPGFSYGSGSTGSQQSEGSKSSGSTRSSRRAPGREKERRAAGAGGSGSESDHTAPSGVGSSWRERPAGQLSRGSSPRSQASATAPGLPPPHPTTKAYTVVGGPPGGPPVRELAAVPPELTGSRQSFQKAMGNPCEFFVDIM
modifications: left off: HA, N-terminal, kept
notes: full-length HA-tagged wild-type DVL1 expressed in cells
For the molecule B1, the figures for the “binding of DVL1 to KLHL12 (immunoprecipitation)” value in assay [1] and in assay [1] (listed as Wild-type (WT) DVL1) were “bound robustly” and “bound robustly to KLHL12”, respectively. The “DVL1 protein level / stability” value in the assay with full-length KLHL12 is on record as “striking reduction in the DVL1 protein level”.

B2: DVL3 (Zhao et al.): DVL3, KLHL12 binding by NMR in a parallel study by Zhao et al. (protein, UniProt Q92997 1-716, looked up)
Segment polarity protein …: MGETKIIYHLDGQETPYLVKLPLPAERVTLADFKGVLQRPSYKFFFKSMDDDFGVVKEEISDDNAKLPCFNGRVVSWLVSAEGSHPDPAPFCADNPSELPPPMERTGGIGDSRPPSFHPHAGGGSQENLDNDTETDSLVSAQRERPRRRDGPEHATRLNGTAKGERRREPGGYDSSSTLMSSELETTSFFDSDEDDSTSRFSSSTEQSSASRLMRRHKRRRRKQKVSRIERSSSFSSITDSTMSLNIITVTLNMEKYNFLGISIVGQSNERGDGGIYIGSIMKGGAVAADGRIEPGDMLLQVNEINFENMSNDDAVRVLREIVHKPGPITLTVAKCWDPSPRGCFTLPRSEPIRPIDPAAWVSHTAAMTGTFPAYGMSPSLSTITSTSSSITSSIPDTERLDDFHLSIHSDMAAIVKAMASPESGLEVRDRMWLKITIPNAFIGSDVVDWLYHNVEGFTDRREARKYASNLLKAGFIRHTVNKITFSEQCYYIFGDLCGNMANLSLHDHDGSSGASDQDTLAPLPHPGAAPWPMAFPYQYPPPPHPYNPHPGFPELGYSYGGGSASSQHSEGSRSSGSNRSGSDRRKEKDPKAGDSKSGGSGSESDHTTRSSLRGPRERAPSERSGPAASEHSHRSHHSLASSLRSHHTHPSYGPPGVPPLYGPPMLMMPPPPAAMGPPGAPPGRDLASVPPELTASRQSFRMAMGNPSEFFVDVM
Regarding B2, the “binding to KLHL12 by NMR” value in the assay on KLHL12 is “confirmed the binding”.

B3: DVL1 20-mer peptide, residues 650-669, printed on the SPOT array (spot A13) (peptide, UniProt O14640-1 650-669, looked up)
peptide: AYTVVGGPPGGPPVRELAAV
notes: source: synthetic peptide, synthesized directly on a modified cellulose membrane with a polyethylglycol linker (SPOT)
As to B3, the binding result in assay [2] was “binds”.

B4: FITC-labelled DVL1 peptide, residues 650-669 (peptide, UniProt O14640-1 650-669, looked up)
peptide: {FITC}-AYTVVGGPPGGPPVRELAAV
notes: source: synthetic peptide (Tufts University Core Services), purified
As to B4, the Kd in assay [3] was found to be 22.3 µM.
